Columns and labels:
[1] = molecular target: Saccharomyces cerevisiae Nup100 FG domain (residues 1-580, FG bodies formed in E. coli) (S. cerevisiae) (UniProt Q02629); test: partitioning into FG bodies or inclusion bodies (confocal laser-scanning microscopy); crude FG bodies or actin inclusion bodies from E. coli, washed twice in TBS; 1 µM Impβ•IBB-GFP and MBP-mCherry added
[2] = molecular target: Saccharomyces cerevisiae Nup116 FG domain (residues 1-736, FG bodies formed in E. coli) (S. cerevisiae) (UniProt Q02630); test: as above
[3] = molecular target: Saccharomyces cerevisiae Nup100 FG domain (residues 2-580, purified) (S. cerevisiae) (UniProt Q02629); test: partitioning into FG particles (confocal laser-scanning microscopy); FG particles formed from 5 or 10 µM purified FG domain (with labelled tracer) by dilution from GuHCl into TBS; 1 µM fluorescent NTR or NTR⋅cargo complex or 3 µM passive probe added; images about 2-3 min later
[4] = molecular target: Branchiostoma floridae Nup98 FG domain (Branchiostoma floridae); test: dynamic light scattering; FG domain diluted from stocks in 2 M GuHCl into TBS (50 mM Tris/HCl pH 7.5, 150 mM NaCl) to 10-0.06 µM; critical concentration of phase separation from the lowest concentration with particles, refined by the monomers that co-exist with particles
[5] = molecular target: Dictyostelium discoideum Nup220 FG domain (Dictyostelium discoideum); test: as above
[6] = molecular target: Tetrahymena thermophila macronuclear MacNup98A FG domain (Tetrahymena thermophila); test: as above
[7] = molecular target: Branchiostoma floridae Nup98 FG domain, O-GlcNAc modified (Branchiostoma floridae); test: as above
[8] = molecular target: Trypanosoma brucei Nup158 FG domain (Trypanosoma brucei); test: as above
[9] = molecular target: T1, human Importin β (human, UniProt Q14974 1-876); test: pull-down; His-tagged FG domains (30 µg each) immobilised on 30 µl PEG-passivated Ni(II) chelate beads; 1 µM untagged human Importin β (400 µl), 2 hr at 4°C; 25 mM Tris/HCl pH 7.5, 100 mM NaCl, 1 mM MgCl2, 0.5% PEG4000, 5 mM DTT; SDS-PAGE/Coomassie; conditions: both partners purified
T1 construct: Importin β, human; also called HsImpβ; pICH005; source: E. coli (BLR or NEB Express), purified (native Ni(II) chelate chromatography, tag removed); not shown: His14, N-terminal, cleaved; scSUMO, N-terminal, cleaved
T1 sequence (Q14974 whole entry, the tested form may be a part): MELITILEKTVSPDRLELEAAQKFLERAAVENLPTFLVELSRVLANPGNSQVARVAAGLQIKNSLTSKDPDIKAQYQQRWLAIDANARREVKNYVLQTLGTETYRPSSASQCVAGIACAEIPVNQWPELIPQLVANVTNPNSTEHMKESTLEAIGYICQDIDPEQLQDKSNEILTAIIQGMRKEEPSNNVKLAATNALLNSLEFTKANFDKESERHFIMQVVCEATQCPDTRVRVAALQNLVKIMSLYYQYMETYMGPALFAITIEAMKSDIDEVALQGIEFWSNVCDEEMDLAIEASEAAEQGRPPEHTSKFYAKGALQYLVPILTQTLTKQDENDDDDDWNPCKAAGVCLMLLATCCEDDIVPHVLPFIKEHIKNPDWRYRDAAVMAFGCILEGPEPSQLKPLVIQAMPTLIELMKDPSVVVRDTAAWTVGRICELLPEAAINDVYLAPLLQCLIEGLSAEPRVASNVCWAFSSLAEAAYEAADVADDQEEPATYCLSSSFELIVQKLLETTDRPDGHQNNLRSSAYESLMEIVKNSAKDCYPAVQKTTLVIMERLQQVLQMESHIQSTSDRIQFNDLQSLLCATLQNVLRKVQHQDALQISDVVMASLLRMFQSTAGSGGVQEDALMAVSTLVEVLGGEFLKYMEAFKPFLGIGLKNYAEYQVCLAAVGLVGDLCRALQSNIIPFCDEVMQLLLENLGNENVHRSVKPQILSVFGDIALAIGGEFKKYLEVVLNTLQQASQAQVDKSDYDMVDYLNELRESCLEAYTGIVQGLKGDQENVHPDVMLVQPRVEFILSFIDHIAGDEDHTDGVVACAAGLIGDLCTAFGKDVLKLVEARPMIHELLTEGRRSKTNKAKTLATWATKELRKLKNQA

[10] = molecular target: the molecule itself; test: dynamic light scattering; FG domain diluted from stocks in 2 M GuHCl into TBS (50 mM Tris/HCl pH 7.5, 150 mM NaCl) to 10-0.06 µM; critical concentration of phase separation from the lowest concentration with particles, refined by the monomers that co-exist with particles

Molecule: Importin β⋅IBB-GFP complex (from UniProt Q06142 1-861; Q02821 2-63)
- particle:buffer partition coefficient [1]: 200
- particle:buffer partition coefficient [2]: 200
- particle:buffer partition coefficient [3]: 220

Molecule: Branchiostoma floridae Nup98 FG domain (domain or fragment)
- estimated critical concentration for phase separation (FG domain) [4]: 20 nM

Molecule: Dictyostelium discoideum Nup220 FG domain (domain or fragment)
- estimated critical concentration for phase separation (FG domain) [5]: 125 nM

Molecule: Tetrahymena thermophila macronuclear MacNup98A FG domain (domain or fragment)
- estimated critical concentration for phase separation (FG domain) [6]: 25 nM

Molecule: MBP-mCherry fusion
- particle:buffer partition coefficient [3]: < 0.1

Molecule: Branchiostoma floridae Nup98 FG domain, O-GlcNAc modified (domain or fragment)
- estimated critical concentration for phase separation (FG domain) [7]: 150 nM

Molecule: Trypanosoma brucei Nup158 FG domain (domain or fragment)
- estimated critical concentration for phase separation (FG domain) [8]: 300 nM

B1: Arabidopsis thaliana Nup98B FG domain (domain or fragment)
chain: MFGSSNNNPFGQSSISSPFGTQTHSLFGQTNNNASNNPFATKPFGTSTPFGAQTGSSMFGGTSTGVFGAPQTSSPFGASPQAFGSSTQAFGASSTPSFGSSNSPFGGTSTFGQKSFGLSTPQSSPFGSTTQQSQPAFGNSTFGSSTPFGASTTPAFGASSTPAFGVSNTSGFGATNTPGFGATNTTGFGGSSTPGFGASSTPAFGSTNTPAFGASSTPLFGSSSSPAFGASPAPAFGSSGNAFGNNTFSSGGAFGSSSTPTFGASNTSAFGASSSPSFNFGSSPAFGQSTSAFGSSSFGSTQSSLGSTPSPFGAQGAQASTSTFGGQSTIGGQQGGSRVIPYAPTTDTASGTESKSERLQSISAMPAHKGKNMEELRWEDYQRGDKGGQRSTGQSPEGAGFGVTNSQPSIFSTSPAFSQTPVNPTNPFSQTTPTSNTNFSPSFSQPTTPSFGQPTTPSFRSTVSNTTSVFGSSSSLTTNTSQPLGSSIFGSTPAHGSTPGFSIGGFNNSQSSPLFGSNPSFAQNTTPAFSQTSPLFGQNTTPALGQSSSVFGQNTNPALVQSNTFSTPSTGFGNTFSSSSSLTTSISPFGQITPAVTPFQSAQPTQPLGAFGFNNFGQTQIANTTDIAGAMGTFSQGNFKQQPALGNSAVMQPTPVTNPFGTLPALPQC
notes: Nup98B FG domain, Arabidopsis thaliana, residues 1-668; engineered C-terminal cysteine; In particle assays a few percent of the molecules carried a fluorescent tracer label; also called AtNup98B FG; AtNup98B; source: E. coli (BLR or NEB Express), purified (Ni(II) chelate, denaturing conditions); not shown: His14 (with TEV site), N-terminal, kept
- binding result [9]: binds
- estimated critical concentration for phase separation (FG domain) [10]: ~25 nM

B2: Drosophila melanogaster Nup98 FG domain (domain or fragment)
chain: MFGGAKPSFGATPAATSFGGFSGTTTTTPFGQSAFGKPAAPAFGNTSTFAAQPAQQSLFGAAATPAQPAGGLFGANTSTGFGSTATAQPTAFGAFSQPQQTSNIFGSTQTAASTSLFGQSTLPAFGAAKPTMTAFGQTAAAQPTGSLFGQPAAATSTTGFGGFGTSAPTTTNVFGSGTASAFAQPQATAVGASGVNTGTAVAKYQPTIGTDTLMKSGQANSVNTKQHCITAMKEFEGKSLEELRLEDYMCGRKGPQAGNAPGAFGFGAQVTQPAQPASGGLFGSTAQPSTGLFGQTVTENKSMFGTTAFGQQPATNNAFGAATQQNNFLQKPFGATTTTPFAAPAADASNPFGAKPAFGQGGSLFGQAPATSAAPAFGQTNTGFGGFGTTAGATQQSTLFGATPAADPNKSAFGLGTAASAATTGFGFGAPATSTAGGGLFGNKPATSFAAPTFGATSTASTPFSNFGLNTSTAATGGGLFNSGLNKPATSGFGGFGATSAAPLNFNAGNTGGSLFGNTAKPGGGLFGGGTTTLGGTGAAPTGGLFGGGTTSFGGVGGSLGGGGFGMGTNNSLTGGIMGAC
notes: Nup98 FG domain, Drosophila melanogaster, residues 1-580; engineered C-terminal cysteine; In particle assays a few percent of the molecules carried a fluorescent tracer label; also called DmNup98 FG; DmNup98; source: E. coli (BLR or NEB Express), purified (Ni(II) chelate, denaturing conditions); not shown: His18, N-terminal, kept
- binding result [9]: binds
- estimated critical concentration for phase separation (FG domain) [10]: ~200 nM

B3: Saccharomyces cerevisiae Nup100 FG domain (residues 2-580, purified) (domain or fragment, S. cerevisiae)
chain: FGNNRPMFGGSNLSFGSNTSSFGGQQSQQPNSLFGNSNNNNNSTSNNAQSGFGGFTSAAGSNSNSLFGNNNTQNNGAFGQSMGATQNSPFGSLNSSNASNGNTFGGSSSMGSFGGNTNNAFNNNSNSTNSPFGFNKPNTGGTLFGSQNNNSAGTSSLFGGQSTSTTGTFGNTGSSFGTGLNGNGSNIFGAGNNSQSNTTGSLFGNQQSSAFGTNNQQGSLFGQQSQNTNNAFGNQNQLGGSSFGSKPVGSGSLFGQSNNTLGNTTNNRNGLFGQMNSSNQGSSNSGLFGQNSMNSSTQGVFGQNNNQMQINGNNNNSLFGKANTFSNSASGGLFGQNNQQQGSGLFGQNSQTSGSSGLFGQNNQKQPNTFTQSNTGIGLFGQNNNQQQQSTGLFGAKPAGTTGSLFGGNSSTQPNSLFGTTNVPTSNTQSQQGNSLFGATKLTNMPFGGNPTANQSGSGNSLFGTKPASTTGSLFGNNTASTTVPSTNGLFGNNANNSTSTTNTGLFGAKPDSQSKPALGGGLFGNSNSNSSTIGQNKPVFGGTTQNTGLFGATGTNSSAVGSTGKLFGQNNNTLNVGTC
notes: Nup100 FG domain, S. cerevisiae, residues 2-580; engineered C-terminal cysteine; In particle assays a few percent of the molecules carried a label (Atto390, Atto488 or Alexa488); also called ScNup100 FG; ScNup100; source: E. coli (BLR or NEB Express), purified (Ni(II) chelate, denaturing conditions); not shown: His18, N-terminal, kept
- binding result [9]: binds
- estimated critical concentration for phase separation (FG domain) [10]: ~175 nM

B4: Caenorhabditis elegans NPP-10/Nup98 FG domain (domain or fragment)
chain: MFGQNKSFGSSSFGGGSSGSGLFGQNNQNNQNKGLFGQPANNSGTTGLFGAAQNKPAGSIFGAASNTSSIFGSPQQPQNNQSSLFGGGQNNANRSIFGSTSSAAPASSSLFGNNANNTGTSSIFGSNNNAPSGGGLFGASTVSGTTVKFEPPISSDTMMRNGTTQTISTKHMCISAMSKYDGKSIEELRVEDYIANRKAPGTGTTSTGGGLFGASNTTNQAGSSGLFGSSNAQQKTSLFGGASTSSPFGGNTSTANTGSSLFGNNNANTSAASGSLFGAKPAGSSLFGSTATTGASTFGQTTGSSLFGNQQPQTNTGGSLFGNTQNQNQSGSLFGNTGTTGTGLFGQAQQQPQQQSSGFSFGGAPAATNAFGQPAAANTGGSLFGNTSTANTGSSLFGAKPATSTGFTFGATQPTTTNAFGSTNTGGGLFGNNAAKPGGLFGNTTNTGTGGGLFGSQPQASSGGLFGSNTQATQPLNTGFGNLAQPQIVMQQQC
notes: NPP-10/Nup98 FG domain, Caenorhabditis elegans, residues 1-493; engineered C-terminal cysteine; In particle assays a few percent of the molecules carried a fluorescent tracer label; also called CeNup98 FG; CeNup98; source: E. coli (BLR or NEB Express), purified (Ni(II) chelate, denaturing conditions); not shown: His18, N-terminal, kept
- binding result [9]: binds
- estimated critical concentration for phase separation (FG domain) [10]: ~700 nM

B5: Saccharomyces cerevisiae Nup116 FG domain without the GLEBS domain (domain or fragment, S. cerevisiae)
chain: FGVSRGAFPSATTQPFGSTGSTFGGQQQQQQPVANTSAFGLSQQTNTTQAPAFGNFGNQTSNSPFGMSGSTTANGTPFGQSQLTNNNASGSIFGGMGNNTALSAGSASFGTSQNGTGTTFNNPQGTTNTGFGIMGNNNSTTSATTGGLFGQKPATGMFGTGTGSGGGFGSGATNSTGLFGSSTNLSGNSAFGANKPATSGGLFGNTTNNPTNGTNNTGLFGQQNSNTNGGLFGQQQNSFGANNVSNGGAFGQVNRGAFPQQQTQQGSGGIFGQSNANANGGAFGQQQGTGALFGAKPASGGLFGQSAGSKAFGMNTNPTGTTGGLFGQTNQQQSGGGLFGQQQNSNAGGLFGQNNQSQNQSGLFGQQNSSNAFGQPQQQGGLFGSKPAGGLFGQQQGASTFASGNAQNNSIFGQNNQQQQSTGGLFGQQNNQSQSQPGGLFGQTNQNNNQPFGQNGLQQPQQNNSLFGAKPTGFGNTSLFSNSTTNQSNGISGNNLQQQSGGLFQNKQQPASGGLFGSKPSNTVGGGLFGNNQVANQNNPASTSGGLFGSKPATGSLFGGTNSTAPNASSGGIFGSNNASNTAATTNSTGLFGNKPVGAGASTSAGGLFGNNNNSSLNNSNGSTGLFGSNNTSQSTNAGGLFQNNTSTNTSGGGLFSC
notes: Nup116 FG domain, S. cerevisiae, residues 2-109 joined to 167-715 (GLEBS domain deleted); engineered C-terminal cysteine; In particle assays a few percent of the molecules carried a fluorescent tracer label; also called ScNup116_(ΔGLEBS) FG; ScNup116; source: E. coli (BLR or NEB Express), purified (Ni(II) chelate, denaturing conditions); not shown: His18, N-terminal, kept
- estimated critical concentration for phase separation (FG domain) [10]: ~700 nM

B6: Homo sapiens Nup98 FG domain (domain or fragment, human)
chain: MFNKSFGTPFGGGTGGFGTTSTFGQNTGFGTTSGGAFGTSAFGSSNNTGGLFGNSQTKPGGLFGTSSFSQPATSTSTGFGFGTSTGTANTLFGTASTGTSLFSSQNNAFAQNKPTGFGNFGTSTSSGGLFGTTNTTSNPFGSTSGSLFGPSSFTAAPTGTTIKFNPPTGTDTMVKAGVSTNISTKHQCITAMKEYESKSLEELRLEDYQANRKGPQNQVGAGTTTGLFGSSPATSSATGLFSSSTTNSGFAYGQNKTAFGTSTTGFGTNPGGLFGQQNQQTTSLFSKPFGQATTTQNTGFSFGNTSTIGQPSTNTMGLFGVTQASQPGGLFGTATNTSTGTAFGTGTGLFGQTNTGFGAVGSTLFGNNKLTTFGSSTTSAPSFGTTSGGLFGNKPTLTLGTNTNTSNFGFGTNTSGNSIFGSKPAPGTLGTGLGAGFGTALGAGQASLFGNNQPKIGGPLGTGAFGAPGFNTTTATLGFGAPQAPVALTDPNASAAQQAC
notes: Nup98 FG domain, human, residues 1-499; engineered C-terminal cysteine; In particle assays a few percent of the molecules carried a fluorescent tracer label; also called HsNup98 FG; HsNup98; source: E. coli (BLR or NEB Express), purified (Ni(II) chelate, denaturing conditions); not shown: His18, N-terminal, kept
- binding result [9]: binds
- estimated critical concentration for phase separation (FG domain) [10]: ~25 nM

Source: publication PMC4283134, “Nup98 FG domains from diverse species spontaneously phase-separate into particles with nuclear pore-like permselectivity” (eLife, 2015)
